Columns and labels:
IL-12 = IL-12 (UniProt P29460); experiment: receptor binding assay (RBA)
human IL-12 p70 (human) = human IL-12 p70 (human) (UniProt P29460); experiment: koff; method not given
human IL-12 p70 (human), sequence (P29460 23-328, chain 1 of 2): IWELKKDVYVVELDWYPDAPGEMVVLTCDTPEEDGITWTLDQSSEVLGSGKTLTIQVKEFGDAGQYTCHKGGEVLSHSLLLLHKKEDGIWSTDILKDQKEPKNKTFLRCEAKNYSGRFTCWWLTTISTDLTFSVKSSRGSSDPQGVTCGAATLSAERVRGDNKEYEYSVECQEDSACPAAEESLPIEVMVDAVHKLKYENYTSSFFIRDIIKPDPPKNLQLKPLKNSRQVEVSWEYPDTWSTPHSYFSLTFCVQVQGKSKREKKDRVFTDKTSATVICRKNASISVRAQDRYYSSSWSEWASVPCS
human IL-12 p70 (human), sequence (chain, as listed by the source, chain 2 of 2): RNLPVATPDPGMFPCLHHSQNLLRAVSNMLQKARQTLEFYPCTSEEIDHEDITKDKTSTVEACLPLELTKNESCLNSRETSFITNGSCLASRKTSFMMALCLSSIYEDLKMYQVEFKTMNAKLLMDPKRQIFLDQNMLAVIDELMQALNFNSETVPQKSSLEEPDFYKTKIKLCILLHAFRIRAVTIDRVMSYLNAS

IL-12, sequence (P29460 23-328, chain 1 of 2): as the sequence (P29460 23-328, chain 1 of 2) above
IL-12, sequence (P29459 23-219, chain 2 of 2, further chain): as the sequence (chain, as listed by the source, chain 2 of 2) above

IC50 (IL-12)	fold increase in koff (against Y61) (human IL-12 p70 (human))	Substance
0.02 nM		Y61 L50Y
0.06 nM		Y61 L94Y
	2.5 fold	Y61 with Asn-L31 mutated to aspartate (antibody)
	8 fold	Y61 with His-H95 mutated to glutamate (antibody)
